Ki data for twelve molecules are collected here from patent publication US20190233475A1 (Bicycle, published 2019).

*1 amine or outer side, *2 acyl side, *3 side chain or, on linkers, in order; H or OH if unused. Bridges are numbered along the chain shown (N, C = ends). Where no end group is shown, it is not given here. [ ]: non-standard residue; d: D form. TBMB = c1c(C[*:1])cc(C[*:3])cc1C[*:2]; hArg = N=C(N)NCCCC[C@H](N)C(=O)O; Aze = O=C(O)[C@@H]1CCN1; Sar = CNCC(=O)O

A word on the Ki: it is a measure of affinity in units of concentration, obtained from inhibition or displacement. Lower therefore signals higher affinity.

B1: Ac-(06-550)-Sar3-(DArg2) (peptide)
peptide: Ac-CSFPYRCVYYPDICA[Sar][Sar][Sar][dR][dR]-NH2
modifications: linker 1-7-14 via TBMB
notes: Synthetic bicyclic peptide, 5 x 6, made on Rink amide resin
B2: Ac-(06-255)-Sar3-(DArg2) (peptide)
peptide: Ac-CRNYWNPCTLINITCA[Sar][Sar][Sar][dR][dR]-NH2
modifications: linker 1-8-15 via TBMB
SMILES: CC[C@H](C)[C@@H]1NC(=O)[C@H](CC(C)C)NC(=O)[C@H]([C@@H](C)O)NC(=O)[C@@H]2CSCc3cc(cc(c3)CSC[C@@H](C(=O)N[C@@H](C)C(=O)N(C)CC(=O)N(C)CC(=O)N(C)CC(=O)N[C@H](CCCNC(=N)N)C(=O)N[C@H](CCCNC(=N)N)C(N)=O)NC(=O)[C@H]([C@@H](C)O)NC(=O)[C@H]([C@@H](C)CC)NC(=O)[C@H](CC(N)=O)NC1=O)CSC[C@H](NC(C)=O)C(=O)N[C@@H](CCCNC(=N)N)C(=O)N[C@@H](CC(N)=O)C(=O)N[C@@H](Cc1ccc(O)cc1)C(=O)N[C@@H](Cc1c[nH]c3ccccc13)C(=O)N[C@@H](CC(N)=O)C(=O)N1CCC[C@H]1C(=O)N2
notes: Synthetic bicyclic peptide with solubilising extension, made on Rink amide resin
B3: 06-254 (peptide)
peptide: ACKNYWNPCDLVTISCA-NH2
modifications: linker 2-9-16 via TBMB; N-terminus assumed
SMILES: CC[C@H](C)[C@@H]1NC(=O)[C@H]([C@@H](C)O)NC(=O)[C@H](C(C)C)NC(=O)[C@H](CC(C)C)NC(=O)[C@H](CC(=O)O)NC(=O)[C@@H]2CSCc3cc(cc(c3)CSC[C@@H](C(=O)N[C@@H](C)C(N)=O)NC(=O)[C@H](CO)NC1=O)CSC[C@H](NC(=O)[C@H](C)N)C(=O)N[C@@H](CCCCN)C(=O)N[C@@H](CC(N)=O)C(=O)N[C@@H](Cc1ccc(O)cc1)C(=O)N[C@@H](Cc1c[nH]c3ccccc13)C(=O)N[C@@H](CC(N)=O)C(=O)N1CCC[C@H]1C(=O)N2
notes: Synthetic bicyclic peptide, 6 x 6, made on Rink amide resin
B4: Ac-(06-259-02)-Sar3-(DArg2) (peptide)
peptide: Ac-CNTWNPWCPWDAPLCA[Sar][Sar][Sar][dR][dR]-NH2
modifications: linker 1-8-15 via TBMB
SMILES: CC(=O)N[C@H]1CSCc2cc3cc(c2)CSC[C@H](NC(=O)[C@H](Cc2c[nH]c4ccccc24)NC(=O)[C@@H]2CCCN2C(=O)[C@H](CC(N)=O)NC(=O)[C@H](Cc2c[nH]c4ccccc24)NC(=O)[C@H]([C@@H](C)O)NC(=O)[C@H](CC(N)=O)NC1=O)C(=O)N1CCC[C@H]1C(=O)N[C@@H](Cc1c[nH]c2ccccc12)C(=O)N[C@@H](CC(=O)O)C(=O)N[C@@H](C)C(=O)N1CCC[C@H]1C(=O)N[C@@H](CC(C)C)C(=O)N[C@H](C(=O)N[C@@H](C)C(=O)N(C)CC(=O)N(C)CC(=O)N(C)CC(=O)N[C@H](CCCNC(=N)N)C(=O)N[C@H](CCCNC(=N)N)C(N)=O)CSC3
notes: Synthetic bicyclic peptide with solubilising extension, made on Rink amide resin; also called Bicycle 3
B5: 06-258 (peptide)
peptide: ACPYPFRCLHENLCA-NH2
modifications: linker 2-8-14 via TBMB
notes: Synthetic bicyclic peptide, 5 x 5, made on Rink amide resin
B6: 06-255 (peptide)
peptide: ACRNYWNPCTLINITCA-NH2
modifications: linker 2-9-16 via TBMB
notes: as for B3
B7: 06-256 (peptide)
peptide: ACQKFESRCRVDTRYCA-NH2
modifications: linker 2-9-16 via TBMB
notes: as for B3
B8: Ac-(06-255) (peptide)
peptide: Ac-CRNYWNPCTLINITC-NH2
modifications: linker 1-8-15 via TBMB
notes: Synthetic bicyclic peptide without the terminal alanines, made on Rink amide resin
B9: Ac-(06-550)-Sar3-(DArg2) Aze3HArg5 (peptide)
peptide: Ac-CSF[Aze]Y[hArg]CVYYPDICA[Sar][Sar][Sar][dR][dR]-NH2
modifications: linker 1-7-14 via TBMB
notes: Synthetic bicyclic peptide, 5 x 6, made on Rink amide resin; also called Bicycle 1
B10: 06-261 (peptide)
peptide: ACNNFPFRCVYYPDICA-NH2
modifications: linker 2-9-16 via TBMB
notes: as for B3
B11: 06-259-02 (peptide)
peptide: ACNTWNPWCPWDAPLCA-NH2
modifications: linker 2-9-16 via TBMB
notes: as for B3

The target in the first assay is T1, human plasma kallikrein (human, UniProt P03952 20-638).
T1 construct: Enzyme used in the Ki assays; also called human kallikrein; PK
T1 sequence (P03952 20-638 limits assumed): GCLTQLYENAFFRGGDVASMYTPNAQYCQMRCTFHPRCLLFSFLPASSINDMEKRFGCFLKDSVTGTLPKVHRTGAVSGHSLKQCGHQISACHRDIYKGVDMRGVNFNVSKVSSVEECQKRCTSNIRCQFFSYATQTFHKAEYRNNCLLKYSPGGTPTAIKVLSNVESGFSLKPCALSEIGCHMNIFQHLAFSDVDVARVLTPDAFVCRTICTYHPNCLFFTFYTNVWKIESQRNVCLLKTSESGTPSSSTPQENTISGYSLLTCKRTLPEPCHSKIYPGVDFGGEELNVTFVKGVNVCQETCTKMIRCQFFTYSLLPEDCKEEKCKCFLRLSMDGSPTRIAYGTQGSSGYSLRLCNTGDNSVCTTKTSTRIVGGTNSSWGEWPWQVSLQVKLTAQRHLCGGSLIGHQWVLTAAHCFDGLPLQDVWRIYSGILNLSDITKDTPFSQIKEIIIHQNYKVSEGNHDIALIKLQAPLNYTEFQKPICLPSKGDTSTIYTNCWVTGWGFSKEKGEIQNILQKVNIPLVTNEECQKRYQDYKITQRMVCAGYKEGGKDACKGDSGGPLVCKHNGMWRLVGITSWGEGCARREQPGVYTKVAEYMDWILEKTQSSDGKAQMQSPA
As to the kind of experiment: enzyme inhibition assay, fluorogenic substrate Z-PheArg-AMC. As for the experimental part:
(§1) Functional enzyme assays were conducted in 10 mM Tris HCl, 150 mM NaCl, 10 mM MgCl₂, 1 mM CaCl₂ and 1 mg/mL BSA (all Sigma UK) pH 7.4 at 25° C. in solid black 96 or 384 well plates. […] Release of AMC was measured using a Pherastar FS (BMG Labtech), excitation 360 nm, emission 460 nm. The rate of the linear phase of the reaction, typically 5 to 45 minutes, was calculated in MARS data analysis software (BMG labtech). The rate was then used to calculate the IC₅₀ and Kᵢ in Prism (GraphPad). A four parameter inhibition non-linear regression equation was used to calculate the IC₅₀. The One site-fit Kᵢ equation used to calculate the Kᵢ, constraining the Kᵢ to the Kₘ for the substrate which is 150 μM for the human enzyme, and 200 μM for the rat orthologue. All Kᵢ/IC₅₀ values are the mean of at least two independent experiments, and at least three for peptides with Kᵢ values lower than 1 nM. For rabbit kallikrein, between 7 to 14 pM enzyme was employed, with 33 μM substrate with a Kₘ of 50 μM.
For B1, affinity was put at a Ki of 2.1 nM.

On to B2, for which affinity was put at a Ki of 1.2 nM.

Regarding B3, the Ki is 5.3 nM.

Regarding B4, the Ki is 0.8 nM.

For B5, the affinity corresponds to a Ki of 4.3 nM.

Turning to B6, the Ki was found to be 3.4 nM.

B7 displayed a Ki of 6.6 nM.

The molecule B8 yielded a Ki of 3.7 nM.

B9 returned a Ki of 0.4 nM.

As to B10, the Ki was 0.4 nM.

As to Ac-CSFPYRCVYYPDIC-NH2 (linker 1-7-14 via TBMB) [Ac-(06-550)], the affinity, expressed as Ki, was 0.9 nM.

A further assay deals with T2, rat plasma kallikrein (rat, UniProt P14272 391-638).
T2 construct: domain: catalytic domain; Expressed and purified in house; also called rat kallikrein; rPK
T2 sequence (P14272 391-638 limits assumed): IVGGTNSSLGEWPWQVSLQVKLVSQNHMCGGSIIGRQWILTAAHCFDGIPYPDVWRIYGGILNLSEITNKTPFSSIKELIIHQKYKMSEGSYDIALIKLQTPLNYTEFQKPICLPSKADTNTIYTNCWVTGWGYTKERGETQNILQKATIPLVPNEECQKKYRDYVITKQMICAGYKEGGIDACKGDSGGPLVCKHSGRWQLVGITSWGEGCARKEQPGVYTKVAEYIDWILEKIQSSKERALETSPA
The description is as above. As for the experimental part:
as §1
B1 registered an inhibition constant (Ki) of 24 nM.

As to B2, the Ki was determined as 7.4 nM.

The molecule B3 showed a Ki of 42.5 nM.

B4 registered a Ki of 2.1 nM.

B5 showed a Ki of 5.2 nM.

B6 showed a Ki of 18.9 nM.

B7: the Ki was 2780 nM.

In the case of B8, the Ki was 7.7 nM.

In turn, B9 came in with a Ki of 8.2 nM.

Turning to B10, the Ki was determined as 4 nM.

The molecule Ac-CSFPYRCVYYPDIC-NH2 (linker 1-7-14 via TBMB) [Ac-(06-550)] showed a Ki of 9.3 nM.

The target in a further assay is T3, rabbit plasma kallikrein (rabbit, UniProt G1T127 20-390; G1T127 391-629, The active enzyme is two chains, heavy and catalytic light, joined by a disulfide after cleavage at Arg390-Ile391. The letters do not carry the natural glycosylation.).
T3 construct: also called rabbit kallikrein
T3 sequence (heavy, as listed by the source limits assumed, form in doubt, chain 1 of 2): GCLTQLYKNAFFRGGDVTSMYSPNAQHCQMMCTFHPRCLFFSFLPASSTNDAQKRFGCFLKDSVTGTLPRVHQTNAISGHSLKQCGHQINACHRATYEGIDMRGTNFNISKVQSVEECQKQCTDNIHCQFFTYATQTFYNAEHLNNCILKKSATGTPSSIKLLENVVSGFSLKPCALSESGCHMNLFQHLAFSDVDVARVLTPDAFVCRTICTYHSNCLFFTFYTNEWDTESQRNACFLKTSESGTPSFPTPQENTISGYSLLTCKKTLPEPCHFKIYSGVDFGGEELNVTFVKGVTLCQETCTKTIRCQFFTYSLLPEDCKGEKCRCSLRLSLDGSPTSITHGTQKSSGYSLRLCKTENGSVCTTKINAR
T3 sequence (light, as listed by the source limits assumed, form in doubt, chain 2 of 2): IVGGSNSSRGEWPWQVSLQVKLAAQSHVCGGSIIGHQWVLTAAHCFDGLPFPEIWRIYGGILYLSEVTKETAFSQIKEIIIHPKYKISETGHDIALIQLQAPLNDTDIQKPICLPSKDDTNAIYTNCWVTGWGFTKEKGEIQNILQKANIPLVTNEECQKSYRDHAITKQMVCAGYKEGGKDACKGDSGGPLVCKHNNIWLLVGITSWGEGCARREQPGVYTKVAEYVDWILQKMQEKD
The description is as above. As for the experimental part: as §1
B1 yielded a Ki of 207 nM.

As for B2, the affinity, expressed as Ki, was 251 nM.

Molecule B3 returned a Ki of 280 nM.

Molecule B4 returned a Ki of 1450 nM.

B5 had a Ki of 331 nM.

Turning to B6, the affinity corresponds to a Ki of 342 nM.

On to B7, for which affinity was put at a Ki of 1460 nM.

B8 had a Ki of 342 nM.

B9 had an inhibition constant Ki of 2650 nM.

Turning to B10, the Ki is 1040 nM.

For the molecule Ac-CSFPYRCVYYPDIC-NH2 (linker 1-7-14 via TBMB) [Ac-(06-550)], the Ki was 610 nM.

The target of the next assay is T1, human plasma kallikrein. The description is as above. This is another data set of the same source. As for the experimental part: as §1
Molecule B3 came in with a Ki of 5.3 nM.

On to B11, for which the Ki was 2.3 nM.

In turn, B5 returned an inhibition constant Ki of 4.3 nM.

As for B6, affinity was put at a Ki of 3.4 nM.

For B7, the Ki amounted to 6.6 nM.

Turning to B10, the Ki is 0.4 nM.

The next assay deals with T2, rat plasma kallikrein. The description is as above. This is another data set of the same source. The procedure:
as §1
On to B3, for which the affinity, expressed as Ki, was 42.5 nM.

As for B11, affinity was put at a Ki of 0.2 nM.

Consider B5, for which the affinity corresponds to a Ki of 5.2 nM.

Turning to B6, the Ki was 18.9 nM.

For the molecule B7, the Ki came out at 2780 nM.

B10: the affinity, expressed as Ki, was 4 nM.

A further assay deals with T3, rabbit plasma kallikrein. Described as above. This is another data set of the same source. The procedure:
as §1
For the molecule B3, the Ki worked out at 280 nM.

B11 displayed a Ki of 1450 nM.

As for B5, the Ki turned out to be 331 nM.

Molecule B6 yielded an inhibition constant Ki of 342 nM.

Regarding B7, the Ki was 1460 nM.

The molecule B10 displayed a Ki of 1040 nM.
